Source: patent US20260098095A1 (Hoffmann-La Roche, published 2026)

Legend:
[1] = target: T1, HLA-A2/MAGE-A4 peptide MHC (pMHC) complex on cells (human); experiment: cell-based or functional assay
[2] = target: T1, HLA-A2/MAGE-A4 peptide MHC (pMHC) …; experiment: cell-based or functional assay; remark: listed apart in the source
[3] = target: T2, HLA-A2/MAGE-A4p230-239 complex (human); experiment: SPR Biacore T200, antibody captured by anti-human Fc, pMHC complex as analyte, 25 C, 1:1 Langmuir fit
T2 construct: also called HLA-A2/MAGEp230-239
Method: The dissociation phase was monitored for 240 s and triggered by switching from the sample solution to HBS-EP+. The chip surface was regenerated after every cycle using an injection of 3M MgCl₂ at 10 μl/min for 30 sec. Bulk refractive index differences were corrected for by subtracting the response obtained on the reference flow cell which contains the anti-human Fc antibody, but without HLA-A2/MAGE-A4 antibody captured on it. The affinity constants were derived from the kinetic rate constants by fitting to a 1:1 Langmuir binding using the BIAeval software (GE Healthcare). The measurement was performed in triplicate with independent dilution series.

B1: Molecule R (bispecific antibody, human IgG1, kappa, L234A L235A)
heavy 1: not shown
heavy 2: AQLVESGGGLVQPGGSLRLSCAASAYFSFKAMSWVRQAPGKGLEWVGSISPSGGSTYYNDNVLGRFTISRDNSKNTLYLQMNSLRAEDTAVYYCAKDVGFFDEWGQGTLVTVSSASTKGPSVFPLAPSSKSTSGGTAALGCLVEDYFPEPVTVSWNSGALTSGVHTFPAVLQSSGLYSLSSVVTVPSSSLGTQTYICNVNHKPSNTKVDEKVEPKSCDKTHTCPPCPAPEAAGGPSVFLFPPKPKDTLMISRTPEVTCVVVDVSHEDPEVKFNWYVDGVEVHNAKTKPREEQYNSTYRVVSVLTVLHQDWLNGKEYKCKVSNKALGAPIEKTISKAKGQPREPQVCTLPPSRDELTKNQVSLSCAVKGFYPSDIAVEWESNGQPENNYKTTPPVLDSDGSFFLVSKLTVDKSRWQQGNVFSCSVMHEALHNHYTQKSLSLSP
light 1: DIQMTQSPSSLSASVGDRVTITCRASQSISSYLAWYQQKPGKAPKLLIYDASIRDIGVPSRFSGSGSGTDFTLTISSLQPEDFATYYCQQYSSYPYTFGQGTKLEIKRTVAAPSVFIFPPSDRKLKSGTASVVCLLNNFYPREAKVQWKVDNALQSGNSQESVTEQDSKDSTYSLSSTLTLSKADYEKHKVYACEVTHQGLSSPVTKSFNRGEC
light 2: EVQLVESGGGLVQPGGSLRLSCAASGYSFTGYTMNWVRQAPGKGLEWVALINPYKGVSTYNQKFKDRFTISVDKSKNTAYLQMNSLRAEDTAVYYCARSGYYGDSDWYFDVWGQGTLVTVSSASVAAPSVFIFPPSDEQLKSGTASVVCLLNNFYPREAKVQWKVDNALQSGNSQESVTEQDSKDSTYSLSSTLTLSKADYEKHKVYACEVTHQGLSSPVTKSFNRGEC
For B1, the “EC50 (nM), T-cell mediated lysis of A375 cells, 48 h” value [1] was 1.47 nM, the “EC50 (nM), T-cell mediated lysis of NCI-H2023 cells, 48 h” value [1] was 1.06 nM and the “EC50 (nM), T-cell mediated lysis of UMUC-3 cells, 48 h” value [1] was 0.57 nM. The “EC50 [pM], T-cell mediated lysis of A375 HLA-A2 overexpressing cells, 24 h” value [2] was 0.08 pM, the “EC50 [pM], T-cell mediated lysis of A375 cells, 24 h” value [2] was 0.6 pM and the Kd [3] was 13.1 nM. For the same binder, the koff [3] was 0.0436 s⁻¹ and the kon [3] was 3.33e+06 M⁻¹ s⁻¹.
